The text below walks through data of paper PMC6327041 (Nature Communications, 2019).

Assay [1] addresses T1, S287-K347 PHD1 (KDM5A, GST-PHD1) (Homo sapiens, UniProt P29375).
T1 construct: Expression of GST-PHD1 (Ser287-Lys347); GST (N); made in house; host or cells: E. coli BL21(DE3)
T1 sequence (P29375 287-347): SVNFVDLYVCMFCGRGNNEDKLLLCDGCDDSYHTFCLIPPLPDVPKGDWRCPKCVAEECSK
Briefly: Fluorescence polarization binding to PHD1 S287-K347. The protocol: (§1) All PHD1 constructs used (Val291-[…], S287-K347, and S287-K347 D292A) (Supplementary Figure 1) were cloned into a pET41a vector and expressed in BL21(DE3) E. coli cells. Expression and purification of all mutants followed the same protocol. Specifically, cells were induced with 0.4 mM IPTG and grown at 18 °C overnight before the pellet was collected. The cells were resuspended in lysis buffer (140 mM NaCl, 2.7 mM KCl, 10 mM Na2HPO4, 1.8 mM KH2PO4, 0.5 mM TCEP, 50 µM ZnCl2, 1 mM phenylmethylsulfonyl fluoride (PMSF), pH 7.3), lysed by sonication and centrifuged. The supernatant was purified using Glutathione Sepharose 4B resin, washed with high salt buffer (50 mM HEPES, 700 mM KCl, 10% glycerol, 0.5 mM TCEP, […], 1 mM PMSF, pH 8) and low salt buffer (50 mM HEPES, 150 mM KCl, 10% glycerol, 0.5 mM TCEP, […], 1 mM PMSF, pH 8) and recovered by elution using low salt buffer with 30 mM glutathione. The sample was then concentrated and further purified by size-exclusion chromatography using a Hiload 26/60 Superdex 75 gel filtration column. Samples were eluted into 40 mM HEPES, 50 mM KCl, 0.5 mM TCEP, and […] and flash-frozen.
Data from direct FP measurements were fitted to equation 1: FPobs=FPmaxPHD1+FPminKd/Kd+[PHD1]
Data from competition-based FP assays were fitted to equation 2: FPobs=KiFPmaxPHD1+FPminKd+FPminKd[I]/KiKd+[PHD1]+Kd[I] where FPobs is the observed FP, FPmax is the maximum FP value, FPmin is the minimum FP value, [PHD1] is concentration of PHD1, Kd is the dissociation constant, Ki is the inhibition constant referring to the competing peptide and [I] is the competing peptide concentration.

For another assay, the target named is T2, KDM5A1-797 (Homo sapiens, UniProt P29375).
T2 construct: KDM5A1-797 was cloned into a pFASTBAC HTA vector; His (N, cleaved yes); made in house; host or cells: Sf21 insect cells (baculovirus)
T2 sequence (P29375 1-797): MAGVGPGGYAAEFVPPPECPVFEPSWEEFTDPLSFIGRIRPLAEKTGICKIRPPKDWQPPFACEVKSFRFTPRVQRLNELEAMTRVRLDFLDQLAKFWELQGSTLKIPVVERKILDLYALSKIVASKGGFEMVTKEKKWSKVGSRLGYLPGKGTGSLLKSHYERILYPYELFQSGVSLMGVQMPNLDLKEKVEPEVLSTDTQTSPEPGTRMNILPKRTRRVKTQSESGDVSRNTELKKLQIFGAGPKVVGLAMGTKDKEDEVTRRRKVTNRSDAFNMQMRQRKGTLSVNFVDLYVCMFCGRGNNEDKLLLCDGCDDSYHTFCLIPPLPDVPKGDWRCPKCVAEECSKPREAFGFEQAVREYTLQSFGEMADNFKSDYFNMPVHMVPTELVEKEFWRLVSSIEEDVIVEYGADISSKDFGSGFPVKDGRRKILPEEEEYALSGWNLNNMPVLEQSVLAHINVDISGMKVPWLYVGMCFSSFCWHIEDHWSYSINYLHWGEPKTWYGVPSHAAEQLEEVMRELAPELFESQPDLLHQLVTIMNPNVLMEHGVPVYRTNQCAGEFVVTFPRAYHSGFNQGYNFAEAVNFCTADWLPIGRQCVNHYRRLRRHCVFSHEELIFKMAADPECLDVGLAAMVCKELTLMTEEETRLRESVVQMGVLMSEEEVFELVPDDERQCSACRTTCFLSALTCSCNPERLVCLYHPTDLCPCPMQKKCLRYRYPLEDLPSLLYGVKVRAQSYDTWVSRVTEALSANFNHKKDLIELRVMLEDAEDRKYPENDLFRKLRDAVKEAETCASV
As to the kind of experiment: KDM5A demethylation, FDH-coupled formaldehyde release assay. It is filed as biochemical. The note with it: for kcat / Km: 1 μM KDM5A, pH 7.5, room temperature, n ≥ 3, s.e.m.; for Km: read-out: Km. The protocol:
WT KDM5A1-797 was expressed in Sf21 cells following Invitrogen Bac-to-Bac baculovirus expression system protocol. KDM5A1-797 was cloned into a pFASTBAC HTA vector. Purified bacmid was transfected in Sf21 cells. Approximately […] cells per well of a six-well dish were allowed to attach in 2 ml of SF-900 II SFM media containing 50 U ml^−1 penicillin and 50 μg ml^−1 streptomycin. While cells attached, 8 μl of Cellfectin II reagent (Invitrogen) in 100 μl of unsupplemented Grace’s medium was mixed with ~2–5 μg of bacmid in 100 μl of unsupplemented Grace’s medium and incubated for 15–30 min at 25 °C. Once cells were attached, media was removed and cells were washed with 2 ml of Grace’s unsupplemented media. The bacmid DNA:Cellfectin mixture was then diluted to 1 ml with Grace’s unsupplemented media and added to the well. Cells with bacmid:Cellfectin II mixture were incubated for 5 h at 27 °C. After 5 h of incubation, bacmid:Cellfectin mixture was removed and replaced with 2 ml of SF-900 II SFM 50 U ml^−1 penicillin and 50 μg ml^−1 streptomycin. Transfected cells were incubated 3–5 days or until signs of viral infection were observed. After transfection, the supernatant was spun down to remove the dead cells. The supernatant was then sterile filtered to obtain the P1 viral stock. To make P2, 20 ml of […] at ~2 × 10^6 cells per ml of sf21 was infected with 2 ml of P1 virus and incubated for 48–60 h. After 56 h, the cells were spun down and the supernatant was collected and sterile filtered to obtain P2 viral stock. Similarly, P3 viral stock from P2 viral stock was obtained. Generally, 1 l of Sf21 at 2 × 10^6 cells per ml was infected with ~40 ml of P3 virus for ~48–56 h. Cells were then collected and resuspended in the lysis buffer (25 mM HEPES pH 7.9, 350 mM NaCl, 5 mM KCl, 1.5 mM MgCl2, 10 mM imidazole, aprotinin 2 μg ml^−1, leupeptin 3 μg ml^−1, pepstatin 3 μg ml^−1, and 1 mM PMSF). Cells were homogenized by emulsiflex. After lysis, the supernatant was recovered by centrifuging at 35k r.p.m. for 45 min, and incubated with cobalt resin equilibrated in lysis buffer for 1 h at 4 °C. After incubation the resin was washed with wash buffer (25 mM HEPES, pH 7.9, 350 mM NaCl, 0.5 mM MgCl2, 10% glycerol, 10 mM imidazole, aprotinin 2 μg ml^−1, leupeptin 3 μg ml^−1, pepstatin 3 μg ml^−1, and 1 mM PMSF). His-KDM5A was eluted with elution buffer (25 mM HEPES pH 7.9, 100 mM NaCl, 0.5 mM MgCl2, 10% glycerol, 100 mM imidazole, aprotinin 2 μg ml^−1, leupeptin 3 μg ml^−1, pepstatin 3 μg ml^−1, and 1 mM PMSF). The His-tag was removed by overnight incubation with TEV protease at 4 °C in the dialysis buffer (25 mM HEPES, pH 7.9, 100 mM NaCl, and 2 mM DTT). After cleavage, protein was further purified by size-exclusion chromatography using a S200 column. Purified KDM5A was eluted, aliquoted and stored at −80 °C in 40 mM HEPES, pH 7.9, 50 mM KCl.
Michaelis–Menten parameters were determined using Graphpad Prism.

Assay [2] deals with T3, S287-K347 PHD1 D292A (KDM5A, GST-PHD1) (Homo sapiens, UniProt P29375, D292A).
T3 construct: S287-K347, and S287-K347 D292A; GST (N); made in house; host or cells: E. coli BL21(DE3)
T3 sequence (P29375 287-347 D292A): T1 sequence (P29375 287-347) with D6A
Briefly: Fluorescence polarization binding to PHD1 S287-K347 D292A. The following applies: compared to WT PHD1S287-K347. The protocol: as §1
Data from direct FP measurements were fitted to equation 1: FPobs=FPmaxPHD1+FPminKd/Kd+[PHD1] […]

A further assay relates to PHD1KDM5B. The note with it: cited from earlier work. An excerpt: This study presents a significant amount of biochemical and biophysical work to reveal the molecular basis underlying the allosteric enhancement in a quantitative manner. […] H ...

Substitutions are numbered along the chain they refer to. Where two headings read alike, the source gives them in different places.

“Ac-H3K4me2 21mer: N-terminally acetylated 21mer H3K4me2 peptide (Ala1-Ala21)”: the “binding to PHD1 domain” value in assay [1] (FP, at the concentrations used in our assays (Supplementary Figure 3a: Ac-H3K4me2-FAM, PHD1S287-K347)) is reported as “does not bind to the PHD1 domain”. Besides, in the assay with KDM5A1-797 (38 µM H3 10mer effector peptide vs none), the “reduction in Km on addition of effector peptide” value is on record as “fivefold”. For the same compound, in the assay with KDM5A1-797 (+H3 10mer peptide (38 µM)), the kcat/Km was found to be 427 ± 95 M⁻¹ s⁻¹, the kcat stood at 0.0233 ± 0.001 s⁻¹ and the Km came out at 54.7 ± 9.9 µM. For the same compound, in the assay with KDM5A1-797 (No effector peptide), the kcat/Km came to 98 ± 34 M⁻¹ s⁻¹, the kcat was found to be 0.0225 ± 0.00183 s⁻¹ and the Km was 229 ± 60 µM.

For “H3K4me0: C-terminal fluorescently labeled unmodified H3 10mer peptide, affinity by direct FP”, the “preference for WT H3 peptide over H3K4A peptide” value in assay [1] (ratio of Kd) is given as 2.3 fold. Besides, the figures for the “decrease in affinity, D292A vs WT PHD1S287-K347” value in assay [2] (listed as H3 peptide) and in assay [2] (listed as unmodified H3 peptide) were 7.6 fold and “approximately eightfold”, respectively. For the same compound, the “decrease in affinity for H3 peptide on mutation of the analogous Asp in KDM5B PHD1” value in the assay on PHD1KDM5B (PHD1KDM5B Asp mutant vs WT, ref Klein Cell Rep 2014 and Zhang Protein Cell 2014) is on record as “approximately 6 fold”. The “discrimination of WT H3 over H3K4A peptide” value in the assay with PHD1KDM5B (PHD1KDM5B) was 2.5 fold.

As for `C[C@H](N)C(=O)N[C@@H](C)C(=O)N[C@H](C(=O)N[C@@H](CCCCN)C(=O)N[C@@H](CCC(N)=O)C(=O)N[C@H](C(=O)N[C@@H](C)C(=O)N[C@@H](CCCNC(=N)N)C(=O)N[C@@H](CCCCN)C(=O)N[C@@H](CO)C(=O)O)[C@@H](C)O)[C@@H](C)O` [H3R2A], the Kd in assay [1] (modified H3 10mer N-terminal peptides, competition-based FP, NB = no binding, n ≥ 3, s.e.m., construct not stated in legend, read-out: PHD1 binding Kd (Fig. 4a)) stood at 205 ± 73 µM.
